We go through two compounds from publication PMC8050391, “Structure of 3-mercaptopropionic acid dioxygenase with a substrate analog reveals bidentate substrate binding at the iron center” (The Journal of Biological Chemistry, 2021).

For test [1], the target named is T1, 3-mercaptopropionic acid dioxygenase (Av3MDO) (Azotobacter vinelandii, UniProt C1DN94).
T1 construct: gene Avin_30970; His-tag removed by thrombin; N- and C-termini not modelled
The test is described as follows: X-ray crystal structure ([…] Å); competitive inhibition by O2 electrode steady-state kinetics. It counts as biochemical.

Test [2] concerns the target Azotobacter vinelandii 3-mercaptopropionic acid dioxygenase (Azotobacter vinelandii). Briefly: crystal structure; crystal form B, space group P6(1)22, four monomers in the asymmetric unit; HEPES pH 7, pentaerythritol propoxylate, sodium thiocyanate, 22 °C; thiocyanate bound at the iron.
The target is the same in test [3]. The test is described as follows: crystal structure; crystal form A, space group P3(1), 12 monomers in the asymmetric unit; 100 mM MES pH 6, 30% poly(acrylic acid sodium salt) 5100, 10% ethanol, 50 mM MgCl2, 22 °C; complex with 3HPA and chloride.

T1 sequence (C1DN94 entry or part of it): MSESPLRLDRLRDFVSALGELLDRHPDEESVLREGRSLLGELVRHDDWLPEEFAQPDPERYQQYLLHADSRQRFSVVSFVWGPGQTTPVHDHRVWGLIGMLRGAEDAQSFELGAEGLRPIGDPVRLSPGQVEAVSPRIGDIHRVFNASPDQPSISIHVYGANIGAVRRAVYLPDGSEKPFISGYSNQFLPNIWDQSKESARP

Usually Ki stands for the dissociation constant of the complex between target and ligand, obtained from inhibition or displacement. High values mean lower affinity, low ones higher affinity. For the compound `O=C(O)CCO` [3HPA, 3-hydroxypropionic acid], in test [1], the Ki stood at 280 ± 26 µM.

For orientation: stoichiometry N means a count of units in the complex or per binding partner. As for “Azotobacter vinelandii 3-mercaptopropionic acid dioxygenase (enzyme)”, the stoichiometry N in test [2] and in test [3] was 2 each time.
